# Reference: PMC8764033, “Single-molecule analysis of specificity and multivalency in binding of short linear substrate motifs to the APC/C” (Nature Communications, 2022)
# Where “and” joins values, the source holds several entries; their conditions need not be identical. Equal entries are not always repeated. Entries after “also recorded” stand apart in the source; their conditions may differ.
# B1: Hsl1^Halo KEN & D: Hsl1 fragment (amino acids 667–872) with C-terminal HaloTag, JF549-labeled (protein)
# chain: QNSASKRSLYSLQSISKRSLNLNDLLVFDDPLPSKKPASENVNKSEPHSLESDSDFEILCDQILFGNALDRILEEEEDNEKERDTQRQRQNDTKSSADTFTISGVSTNKENEGPEYPTKIEKNQFNMSYKPSENMSGLSSFPIFEKENTLSSSYLEEQKPKRAALSDITNSFNKMNKQEGMRIEKKIQREQLQKKNDRPSPLKPIQ
# modifications: JF549 or JF646 dye covalently bound to the HaloTag; left off: HaloTag, C-terminal, kept | TAP, C-terminal, cleaved
# notes: Hsl1 fragment (amino acids 667–872) with C-terminal HaloTag, JF549-labeled
# Experiments:
# [1] = test system: APC/C^Apc10-4A, Cdh1; experiment: SMOR assay, yeast APC/C^Apc10-4A, Cdh1; type: binding, Saccharomyces cerevisiae
# Sequence of APC/C^Apc10-4A, Cdh1 (P53197 whole entry): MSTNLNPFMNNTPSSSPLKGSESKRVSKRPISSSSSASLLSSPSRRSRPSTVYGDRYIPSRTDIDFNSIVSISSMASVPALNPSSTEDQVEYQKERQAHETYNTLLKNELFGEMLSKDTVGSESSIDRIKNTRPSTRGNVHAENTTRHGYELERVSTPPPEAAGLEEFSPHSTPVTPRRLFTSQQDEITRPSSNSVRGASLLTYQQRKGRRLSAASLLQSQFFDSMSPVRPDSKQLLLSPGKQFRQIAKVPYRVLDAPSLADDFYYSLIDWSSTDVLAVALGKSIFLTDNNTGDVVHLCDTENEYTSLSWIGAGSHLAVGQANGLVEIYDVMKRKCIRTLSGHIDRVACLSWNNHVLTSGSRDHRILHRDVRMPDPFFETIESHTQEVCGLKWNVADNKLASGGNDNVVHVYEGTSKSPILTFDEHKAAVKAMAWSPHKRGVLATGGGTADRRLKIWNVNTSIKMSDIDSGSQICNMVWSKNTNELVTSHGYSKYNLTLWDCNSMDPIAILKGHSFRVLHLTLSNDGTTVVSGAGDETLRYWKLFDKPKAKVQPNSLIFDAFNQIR
# Description: (§1) Yeast strains were derivatives of W303 and are listed in Supplementary Table 2. For APC/C purification, we used a strain carrying Cdc16-TAP and lacking Cdh1 (DOM1126); in most experiments, the strain also carried Apc1-GFP (NHY13). Yeast were grown in YPD media to OD600 = 0.8, collected and flash-frozen. Cells were lysed by bead beating in lysis buffer A (50 mM HEPES pH 7.5, 150 mM KCl, 10% glycerol, 0.2% Triton X-100, 63 µM B-glycerophosphate, 48 µM sodium fluoride, 1 µg ml^−1 pepstatin A, 1 µg ml^−1 leupeptin, 1 µg ml^−1 aprotinin, 1 mM PMSF, 1 mM DTT, 0.5 mM EDTA) and APC/C was purified using magnetic IgG beads. The beads were washed using wash buffer A (20 mM HEPES pH 7.5, 150 mM KCl, 10% Glycerol, 0.05% Triton X-100). After incubation with purified Cdh1 or Cdc20, the APC/C was cleaved off the beads with TEV protease in wash buffer A with 0.05% Tween-20 (for single-molecule studies) or 0.05% Triton X-100 (for ensemble assays such as ubiquitylation) and used immediately.
# (§2) For all SMOR experiments, 24 × 50 mm high precision glass coverslips (Bioscience Tools) and drilled microscope slides were passivated with a combination of PEG and PEG-biotin (coverslips) or PEG only (slides) following a previously published protocol for SiMPull[31]. Reaction chambers (~20 µl) were created using double-sided tape and epoxy. Protein was immobilized on the surface with 0.2 mg ml^−1 NeutrAvidin in buffer C (20 mM HEPES pH 7.5, 150 mM KCl, 10% glycerol, 0.05% Tween-20, 1 mM DTT). Excess NeutrAvidin was washed away and incubated with either biotin-conjugated mouse monoclonal anti-Strep-Tag II antibody (LSBio, Cat. No. LS-C203632-100) or biotin-conjugated rabbit polyclonal anti-GFP antibody (Rockland, Cat. No. 600-406-215) diluted in buffer C + BSA (0.1 mg ml^−1; Molecular Biology Grade Bovine Serum Albumin). Activator WD40 and activated APC/C (typically 50 µl containing about 65 ng APC/C, of which only a small fraction is immobilized on the glass) were immobilized using anti-Strep-Tag II, while APC/C alone was immobilized with anti-GFP. SMOR results were similar when performed in the buffer (wash buffer B) used in polarization anisotropy.
# (§3) To capture dynamic protein–protein interactions, dye-labeled substrate diluted in buffer C + BSA was added to the chamber containing immobilized proteins. Interactions were imaged by TIRF microscopy as described below. For optimal signal-to-noise ratio, peptide concentration was no greater than 1 nM. […]
# (§4) Microscopy was performed with a Nikon Eclipse TE2000-E with Perfect Focus with a 100 × 1.49na oil, Apo TIRF DIC N2, 0.13-0.2, WD0.12 objective. Movies were recorded using the Andor iXon DU-897E-CSO. […]
# [2] = test system: APC/C^Apc10-4A, Cdc20; experiment: SMOR assay, yeast APC/C^Apc10-4A, Cdc20; type: binding, Saccharomyces cerevisiae
# Sequence of APC/C^Apc10-4A, Cdc20 (P26309 whole entry): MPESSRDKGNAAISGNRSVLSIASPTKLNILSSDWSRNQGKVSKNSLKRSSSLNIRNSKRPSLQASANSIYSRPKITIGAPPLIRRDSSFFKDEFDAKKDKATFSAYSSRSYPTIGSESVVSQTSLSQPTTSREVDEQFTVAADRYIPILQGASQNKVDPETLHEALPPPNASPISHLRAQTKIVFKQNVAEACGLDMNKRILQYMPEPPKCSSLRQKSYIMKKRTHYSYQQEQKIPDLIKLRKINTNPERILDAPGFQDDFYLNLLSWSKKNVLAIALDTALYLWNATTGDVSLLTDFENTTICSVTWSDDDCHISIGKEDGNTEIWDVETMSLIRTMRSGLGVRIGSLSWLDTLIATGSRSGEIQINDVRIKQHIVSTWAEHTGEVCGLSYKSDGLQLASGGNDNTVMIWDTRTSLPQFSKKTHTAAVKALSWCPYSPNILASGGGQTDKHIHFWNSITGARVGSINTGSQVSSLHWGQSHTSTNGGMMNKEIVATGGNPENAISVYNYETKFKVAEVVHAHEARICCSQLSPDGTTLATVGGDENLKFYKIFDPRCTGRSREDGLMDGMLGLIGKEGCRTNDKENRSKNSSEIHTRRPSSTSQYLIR
# Description: as §1, §2, §3, §4
# [3] = target: T1, APC/C^apo (Saccharomyces cerevisiae, UniProt P38042+P53068); experiment: SMOR assay, yeast APC/C^apo (no activator); type: binding; details: Supplementary Table 1, single movie
# T1 construct: APC/C was purified from yeast cells; made in house; host or cells: S. cerevisiae W303 strain NHY13 (Cdc16-TAP, Apc1-GFP, cdh1 deleted)
# Description: as §1, with “immediately. […]” for “immediately.”
# as §4
# [4] = test system: APC/C; experiment: APC/C ubiquitylation assay; type: biochemical, yeast; details: listed as Hsl1^Halo
# Description: APC/C ubiquitylation assays were performed as described previously. In short, APC/C was purified from yeast as described above using magnetic IgG beads and activated with a purified Cdh1 or Cdc20 activator. For all APC/C ubiquitylation assays, substrates were produced by in vitro translation with ^35S-Methionine (see Supplementary Table 5 for plasmids). Substrates were purified using magnetic IgG beads. E1 and E2 (Ubc4) were expressed in E. coli and purified as described previously[25],[42]. E2 was charged at 37 °C for 30 min (reaction contained 0.2 mg ml^−1 Uba1, 2 mg ml^−1 Ubc4, 2 mg ml^−1 methylated ubiquitin from Boston Biochem #Y-501, and 1 mM ATP). Charged E2 was added to a reaction containing activated APC/C and substrate. Reaction products were analyzed by SDS-PAGE and Phosphorimaging on a Typhoon 9400 Imager. […]
# [5] = Supplementary Table 1, replicate 1 (movie listed first)
# [6] = Supplementary Table 1, replicate 2 (movie listed second)
# [7] = representative of two independent experiments, ± SE, ligand ≤1 nM, buffer C + BSA
molecule,measurement,setting,value
B1,binding (in words),[1],This boost in affinity was not seen in the Apc10-4A mutant
same,Dwell Time,[1]; [5],42.881 ± 2.489 s
same,Dwell Time,[1]; [6],75.919 ± 3.159 s
same,mean dwell time,[1]; [7],75.9 ± 3 s and 75.9 s
same,binding (in words),[2],the Apc10-4A mutations only slightly reduced Hsl1 dwell time with APC/C^Cdc20; also recorded: only slightly reduced by mutation of Apc10
same,Dwell Time,[2]; [5],0.449 ± 0.014 s
same,Dwell Time,[2]; [6],0.372 ± 0.027 s
same,mean dwell time,[2]; [7],0.449 s
same,Dwell Time (in words),[3],no binding
same,ubiquitylation (in words),[4],HaloTag does not affect ubiquitylation or binding
